In patent US20140105915A1 (GlaxoSmithKline, published 2014):
Changes are numbered by the printed parent chain.

B1: J6M0 potelligent (antibody, human IgG1, kappa, V domains shown)
VH: QVQLVQSGAEVKKPGSSVKVSCKASGGTFSNYWMHWVRQAPGQGLEWMGATYRGHSDTYYNQKFKGRVTITADKSTSTAYMELSSLRSEDTAVYYCARGAIYDGYDVLDNWGQGTLVTVSS
VL: DIQMTQSPSSLSASVGDRVTITCSASQDISNYLNWYQQKPGKAPKLLIYYTSNLHSGVPSRFSGSGSGTDFTLTISSLQPEDFATYYCQQYRKLPWTFGQGTKLEIKR
modifications: afucosylated (Potelligent) Fc glycan
notes: Same chains as J6M0, made in FUT8-deficient cells (afucosylated); human IgG1/kappa; also called J6M0 potelligent version; afucosylated (Potelligent) J6M0
B2: CA8 humanised J8M1 (antibody, human IgG1, kappa, V domains shown)
VH: B1 VH with G27Y, S30T, A97T
VL: B1 VL with F71Y
notes: humanised, human IgG1/kappa
B3: CA8 humanised J7M1 (antibody, human IgG1, kappa, V domains shown)
VH: B1 VH with G27Y, S30T
VL: B1 VL with F71Y
notes: humanised, human IgG1/kappa
B4: S307118G03 humanised H4L1 (antibody, human IgG1, kappa, V domains shown)
VH: QVQLVQSGAEVKKPGSSVKVSCKASGYTFTDYYMKWVRQAPGQGLEWMGEIYPNNGGITYNQKFKGRVTITADKSTSTAYMELSSLRSEDTAVYYCADGYEFVYWGQGTLVTVSS
VL: B1 VL with D28G, N53S, F71Y, R92S
notes: humanised, human IgG1/kappa
B5: CA8 humanised J7M2 (antibody, human IgG1, kappa, V domains shown)
VH: B1 VH with G27Y, S30T
VL: B1 VL with M4L, K45E, L47V, F71Y
notes: humanised, human IgG1/kappa
B6: CA8 humanised J8M2 (antibody, human IgG1, kappa, V domains shown)
VH: B1 VH with G27Y, S30T, A97T
VL: B1 VL with M4L, K45E, L47V, F71Y
notes: humanised, human IgG1/kappa
B7: CA8 humanised J6M0 (antibody, human IgG1, kappa, V domains shown)
VH: B1 VH
VL: B1 VL
notes: humanised, human IgG1/kappa; also called CA8 J6M0; humanised J6M0 (wild type)
B8: CA8 humanised J8M0 (antibody, human IgG1, kappa, V domains shown)
VH: B1 VH with G27Y, S30T, A97T
VL: B1 VL
notes: humanised, human IgG1/kappa
B9: CA8 humanised J7M0 (antibody, human IgG1, kappa, V domains shown)
VH: B1 VH with G27Y, S30T
VL: B1 VL
notes: humanised, human IgG1/kappa
B10: CA8 humanised J9M2 (antibody, human IgG1, kappa, V domains shown)
VH: B1 VH with A24G, G27Y, S30T, M48I, V68A, I70L, K74T, A97T
VL: B1 VL with M4L, K45E, L47V, F71Y
notes: humanised, human IgG1/kappa
B11: CA8 chimera (antibody, V domains shown)
VH: EVQLQQSGAVLARPGASVKMSCKGSGYTFTNYWMHWVKQRPGQGLEWIGATYRGHSDTYYNQKFKGKAKLTAVTSTSTAYMELSSLTNEDSAVYYCTRGAIYNGYDVLDNWGQGTLVTVSS
VL: DIQLTQTTSSLSASLGDRVTISCSASQDISNYLNWYQQKPDGTVELVIYYTSNLHSGVPSRFSGSGSGTDYSLTIGYLEPEDVATYYCQQYRKLPWTFGGGSKLEIKR
notes: also called chimeric CA8; human chimeric CA8

How the values were obtained:
human BCMA on cells [1] = target: T1, human BCMA on cells (human, UniProt Q02223 1-184); assay: cell-based or functional assay
T1 sequence (looked up): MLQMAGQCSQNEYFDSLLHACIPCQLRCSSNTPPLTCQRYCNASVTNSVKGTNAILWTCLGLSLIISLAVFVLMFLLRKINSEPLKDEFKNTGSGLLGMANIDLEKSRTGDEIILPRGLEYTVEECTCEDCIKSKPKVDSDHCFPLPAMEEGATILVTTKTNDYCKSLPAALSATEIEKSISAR

[2] = target: T2, recombinant human BCMA Fc 4-53 (human); assay: competition ELISA, coated recombinant human BCMA Fc 4-53, blocked ligand recombinant human BAFF (6 ng/mL), biotinylated anti-BAFF detection [A]
T2 construct: also called CD33-hBCMA ECD (4-53) TEV-Fc; recombinant BCMA coated on an ELISA plate
Protocol: 96 well flat bottomed plates were coated overnight with 1 μg/mL solution of recombinant human BCMA Fc 4-53 in PBS. Following a wash step using 0.05% TWEEN20, plates were blocked with 2% Bovine Serum Albumin solution in PBS for 1 hour at room temperature. […] 40 μL of 2% BSA was added to the relevant control wells. […] Equivalent volume of 2% BSA was added to the relevant control wells. Plates were allowed to incubate for 2 hours at room temperature, after which they were washed as before. […] Following a wash step, 50 μL of a 1:4000 dilution of Streptavidin-HRP (Amersham RPN4401) was added to each well and incubated for 30 minutes at room temperature. The wash process was repeated again followed by the addition of 100 μL of Tetramethylbenzidine substrate solution (T8665, Sigma) into each well. Plates were incubated for 20-25 minutes at room temperature, wrapped in foil. The reaction was stopped with the addition of 100 μL of 1M H₂SO₄. Optical density was determined at 450 nm using Spectromax reader.

[3] = target: T3, recombinant human BCMA (in house) (human, UniProt Q02223 4-53, limits assumed); assay: SPR ProteOn XPR36, mAb captured on Protein A, 25C, run 2
T3 construct: Analyte in the ProteOn runs; also called Human in house BCMA; In house human BCMA
T3 chain (looked up): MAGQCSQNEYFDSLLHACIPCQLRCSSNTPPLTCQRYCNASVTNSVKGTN
Protocol: The initial screen of CA8 chimeric and humanised variants was carried out on the ProteOn XPR36 (Biorad). The method was as follows; Protein A was immobilised on a GLC chip (Biorad, Cat No: 176-5011) by primary amine coupling, CA8 variants were then captured on this surface and recombinant human BCMA (in house or commercial US Biological, B0410) materials (run 2 only)) passed over at 256, 64, 16, 4, 1 nM with a OnM injection (i.e. buffer alone) used to double reference the binding curves, the buffer used is the HBS-EP buffer. 50 mM NaOH was used to regenerate the capture surface. The data was fitted to the 1:1 model using the analysis software inherent to the ProteOn XPR36. […] Both runs were carried out at 25° C.

[4] = target: T3, recombinant human BCMA (in house); assay: SPR ProteOn XPR36, mAb captured on Protein A, 25C, run 1
[5] = target: T4, cyno BCMA on HEK293 cells (cyno, UniProt A0A2K5UD97 1-183); assay: FMAT, HEK293 cells transfected with cyno BCMA, anti-human IgG FMAT Blue detection
T4 construct: whole, on cells; also called cyno BCMA HEK293
T4 sequence (A0A2K5UD97 entry or part of it): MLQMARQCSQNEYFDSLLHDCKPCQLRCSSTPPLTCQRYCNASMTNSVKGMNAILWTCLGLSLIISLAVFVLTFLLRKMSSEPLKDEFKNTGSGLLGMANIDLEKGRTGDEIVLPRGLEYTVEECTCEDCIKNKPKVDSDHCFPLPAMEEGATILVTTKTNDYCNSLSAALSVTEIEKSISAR
Protocol: (§1) Cryopreserved transfected human, cyno BCMA and mock transfected HEK293 cells were recovered from LN2 storage. […] The assay plates were left for a minimum of 90 minutes before the result was read on the AB18200 (FMAT) plate reader.

human BCMA on cells [6] = target: T1, human BCMA on cells; assay: FMAT, HEK293 cells transfected with human BCMA, anti-human IgG FMAT Blue detection
Protocol: as §1

Binder | binding result [3] | also measured
B1 |  | IC50 for inhibition of APRIL signalling (phosphorylated NFkappaB in washed H-929 cells, MSD assay) (human BCMA on cells [1]): 2.43 µg/mL; IC50 for inhibition of BAFF signalling (phosphorylated NFkappaB in washed H-929 cells, MSD assay) (human BCMA on cells [1]): 0.91 µg/mL; IC50 (read off the curve) [2]: ~0.8 µg/mL
B2 | binds | 
B3 | binds | 
B4 |  | binding result [4]: no binding (tested: 256 nM (highest analyte concentration))
B5 | binds | 
B6 | binds | 
B7 |  | IC50 (read off the curve) [2]: ~0.8 µg/mL
B8 | binds | 
B9 | binds | 
B10 | binds | 
B11 |  | EC50 (read off the curve) [5]: ~0.3 µg/mL; EC50 (read off the curve) (human BCMA on cells [6]): ~0.4 µg/mL
